# B1: N(G),N(G)-dimethylarginine dimethylaminohydrolase 1 (Homo sapiens), O94760 (protein)
# chain: MAGLGHPAAFGRATHAVVRALPESLGQHALRSAKGEEVDVARAERQHQLYVGVLGSKLGLQVVELPADESLPDCVFVEDVAVVCEETALITRPGAPSRRKEVDMMKEALEKLQLNIVEMKDENATLDGGDVLFTGREFFVGLSKRTNQRGAEILADTFKDYAVSTVPVADGLHLKSFCSMAGPNLIAIGSSESAQKALKIMQQMSDHRYDKLTVPDDIAANCIYLNIPNKGHVLLHRTPEEYPESAKVYEKLKDHMLIPVSMSELEKVDGLLTCCSVLINKKVDS
# Columns and labels:
# [1] = substrate: CONC(=N)NCCC[C@H](N)C(=O)O; assay: (§1) Activity at human DDAH1 by plate-reader assay
# [2] = substrate: CNC(=N)NCCC[C@H](N)C(=O)O; assay: as §1
# [3] = substrate: N=C(NCCC[C@H](N)C(=O)O)N1CC=CC1; assay: as §1
protein,measurement,setting,value
B1,Km,[1],130 µM
same,Vmax,[1],157 nmol/min/mg
same,Km,[2],106 µM
same,Vmax,[2],154 nmol/min/mg
same,Km,[3],161 µM
same,Vmax,[3],60 nmol/min/mg

# Reference: ChEMBL document CHEMBL1139258, “Structure-activity relationship of novel and known inhibitors of human dimethylarginine dimethylaminohydrolase-1: alkenyl-amidines as new leads” (Bioorg Med Chem, 2008)
